Measurements: patent publication US20260242478A1 (published 2026)
Where no end group is shown, it is not given here.

Assays:
006 PSMA Fab [1] = biological target: T1, 006 PSMA Fab; test: phage ELISA; biotinylated PSMA Fab on neutravidin plate, wells pre-incubated with PSMA antigen as competitor, anti-M13-HRP detection
T1 construct: also called Anti-PSMA Fab
Procedure: (§1) Clonal phage were harvested as crude supernatants and screened via standard ELISAs. […] Prior to the addition of clonal phage. wells were incubated with blocking buffer and PSMA antigen or blocking buffer alone. Without washing or aspirating, clonal phage supernatants were then added to the wells and incubated for a short time. Wells were then washed followed by detection of bound phage using a horse radish conjugated anti-M13 antibody.

006 PSMA Fab [2] = biological target: T1, 006 PSMA Fab; test: phage ELISA; biotinylated PSMA Fab on neutravidin plate, blocking buffer alone, anti-M13-HRP detection
Procedure: as §1

PSMA Fab [3] = biological target: T2, PSMA Fab; test: clonal phage ELISA on captured PSMA Fab pre-incubated with PSMA antigen as competitor, anti-M13 HRP detection;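 note: crude clonal phage supernatants tested by ELISA, wells first treated with blocking buffer plus PSMA antigen, bound phage read out via HRP-linked anti-M13 antibody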
T2 construct: Biotinylated and captured on neutravidin coated plates in the phage ELISA; also called Anti-PSMA Fab; 006 PSMA Fab
Procedure: as §1

PSMA Fab [4] = biological target: T2, PSMA Fab; test: clonal phage ELISA on biotinylated PSMA Fab captured on neutravidin plates, anti-M13 HRP detection;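 note: crude clonal phage supernatants tested, before phage were added, wells were pretreated with PSMA antigen in blocking buffer or with blocking buffer only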
Procedure: as §1

PSMA Fab [5] = biological target: T3, PSMA Fab; test: clonal phage ELISA; biotinylated PSMA Fab on neutravidin plate, anti-M13 HRP detection
T3 construct: also called Anti-PSMA Fab; 006 PSMA Fab
Procedure: as §1

PSMA Fab [6] = biological target: T3, PSMA Fab; test: clonal phage ELISA on captured PSMA Fab; wells pre-incubated with PSMA antigen as competitor
Procedure: as §1

PSMA Fab [7] = biological target: T4, PSMA Fab; test: clonal phage ELISA on biotinylated PSMA Fab captured on neutravidin plates, anti-M13-HRP detection, no PSMA antigen
T4 construct: Biotinylated and captured on neutravidin plates in the phage ELISA; also called anti-PSMA Fab; 006 PSMA Fab
Procedure: as §1

PSMA Fab [8] = biological target: T4, PSMA Fab; test: clonal phage ELISA on captured PSMA Fab, wells pre-incubated with PSMA antigen as competitor, anti-M13-HRP detection;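 note: crude clonal phage supernatants added without washing after the PSMA preincubation, comparison wells received blocking buffer alone without PSMA, bound phage read after washing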
Procedure: as §1

Row | Binder | Phage binding ELISA signal, Anti-PSMA Fab in presence of PSMA antigen (006 PSMA Fab [1]) | Phage binding ELISA signal, Anti-PSMA Fab (006 PSMA Fab [2]) | Phage binding ELISA signal, Anti-PSMA Fab with PSMA antigen (PSMA Fab [3]) | Phage binding ELISA signal, Anti-PSMA Fab (PSMA Fab [4]) | other results
1 | MHLMCKPAWMCAGF (tested as crude clonal phage supernatant) [Phage-2880] | 0.118 | 2.38 | – | – | –
2 | QEVYCKPAWMCDGF (tested as crude clonal phage supernatant) [Phage-2890] | 0.104 | 2.36 | – | – | –
3 | NPPYCVPAWMCAGF (tested as crude clonal phage supernatant) [Phage-2885] | 0.0765 | 2.37 | – | – | –
4 | VTVICKPQWMCVGF (tested as crude clonal phage supernatant) [Phage-2879] | 0.0878 | 2.38 | – | – | –
5 | TLSMCVPTWMCTGF [Phage-2877] | – | – | 0.115 | 2.38 | –
6 | TSPACVPSWMCVGF [Phage-2866] | – | – | 0.071 | 2.4 | –
7 | DDIRCKPAWMCMGF [Phage-2876] | – | – | 0.127 | 2.38 | –
8 | WDRLCIPAWMCSGF (cysteine pairing not given here; also: fused to pIII of display bacteriophage, linker and sequence not given here, Clonal phage of the Peptide-180 library; not shown: pIII filament protein of the display bacteriophage) [Phage-2861] | – | – | – | – | Phage binding ELISA signal, Anti-PSMA Fab (PSMA Fab [5]): 2.43; Phage binding ELISA signal (Anti-PSMA Fab, with competitor) (PSMA Fab [6]): 0.197
9 | ESARCVPMWMCNGF (tested as crude clonal phage supernatant) [Phage-2878] | 0.0714 | 2.38 | – | – | –
10 | MSPLCKPVWMCAGF (cysteine pairing not given here; also: displayed on phage by fusion to pIII) [Phage-2865] | – | – | 0.0828 | 2.4 | –
11 | EAHICRPLWMCTGF (tested as crude clonal phage supernatant) [Phage-2891] | 0.0899 | 2.36 | – | – | –
12 | VSKVCKPAWMCEGL (tested as crude clonal phage supernatant) [Phage-2888] | 0.104 | 2.36 | – | – | –
13 | PERMCIPSWMCEVL (tested as crude clonal phage supernatant) [Phage-2882] | 0.1 | 2.38 | – | – | –
14 | TQAMCKPAWMCQGF (cysteine pairing not given here; also: fused to pIII of display bacteriophage, linker and sequence not given here, Clonal phage of the Peptide-180 library; not shown: pIII filament protein of the display bacteriophage) [Phage-2858] | – | – | – | – | Phage binding ELISA signal, Anti-PSMA Fab (PSMA Fab [5]): 2.44; Phage binding ELISA signal (Anti-PSMA Fab, with competitor) (PSMA Fab [6]): 0.0783
15 | SEFWCVPAWMCEGF [Phage-2870] | – | – | 0.0842 | 2.4 | –
16 | SMPRCVPVWMCEGF [Phage-2875] | – | – | 0.107 | 2.39 | –
17 | ETLRCEPMWMCMGF [Phage-2874] | – | – | 0.0975 | 2.39 | –
18 | IIRHCVPMWMCQGF [Phage-2873] | – | – | 0.224 | 2.39 | –
19 | IDILCRPLWMCNGM [Phage-2872] | – | – | 0.113 | 2.39 | –
20 | WPQLCVPMWMCAGL [Phage-2869] | – | – | 0.148 | 2.4 | –

Row | Binder | Phage binding ELISA signal, Anti-PSMA Fab in presence of PSMA antigen (006 PSMA Fab [1]) | Phage binding ELISA signal, Anti-PSMA Fab (006 PSMA Fab [2]) | Phage binding ELISA signal, Anti-PSMA Fab with PSMA antigen (PSMA Fab [3]) | Phage binding ELISA signal, Anti-PSMA Fab (PSMA Fab [4]) | other results
21 | IETWCVPRWMCEGF [Phage-2864] | – | – | 0.234 | 2.42 | –
22 | WEFVCKPEWMCTGF (cysteine pairing not given here; also: fused to phage pIII, linker not given here, Clonal phage of the Peptide-180 library; not shown: pIII filament protein of the display bacteriophage) [Phage-2859] | – | – | – | – | Phage binding ELISA signal, Anti-PSMA Fab (PSMA Fab [5]): 2.43; Phage binding ELISA signal (Anti-PSMA Fab, with competitor) (PSMA Fab [6]): 0.102
23 | MASLCVPSWMCTGF (tested as crude clonal phage supernatant) [Phage-2889] | 0.0629 | 2.36 | – | – | –
24 | VLKMCEPLWMCVGF [Phage-2894] | – | – | – | – | phage binding ELISA signal (PSMA Fab [7]): 2.35; phage binding ELISA signal in presence of PSMA (PSMA Fab [8]): 0.117
25 | LERVCKPLWMCTGL [Phage-2871] | – | – | 0.134 | 2.39 | –
26 | SLPLCKPLWMCEGF (tested as crude clonal phage supernatant) [Phage-2887] | 0.0872 | 2.36 | – | – | –
27 | WDAKCVPRWMCDGF (tested as crude clonal phage supernatant) [Phage-2883] | 0.125 | 2.37 | – | – | –
28 | EFMRCTPPWMCLGF (tested as crude clonal phage supernatant) [Phage-2884] | 0.12 | 2.37 | – | – | –
29 | TGAYCVPQWMCSGF (cysteine pairing not given here; also: fused to phage pIII, linker not given here, Clonal phage of the Peptide-180 library; not shown: pIII filament protein of the display bacteriophage) [Phage-2862] | – | – | – | – | Phage binding ELISA signal, Anti-PSMA Fab (PSMA Fab [5]): 2.43; Phage binding ELISA signal (Anti-PSMA Fab, with competitor) (PSMA Fab [6]): 0.112
30 | LERACVPSWMCTGF (cysteine pairing not given here; also: fused to pIII of display bacteriophage, linker and sequence not given here, Clonal phage of the Peptide-180 library; not shown: pIII filament protein of the display bacteriophage) [Phage-2857] | – | – | – | – | Phage binding ELISA signal, Anti-PSMA Fab (PSMA Fab [5]): 2.44; Phage binding ELISA signal (Anti-PSMA Fab, with competitor) (PSMA Fab [6]): 0.0938
31 | EPIRCVPQWMCVGF [Phage-2868] | – | – | 0.0918 | 2.4 | –
32 | ALPQCVPAWMCLGF [Phage-2893] | – | – | – | – | phage binding ELISA signal (PSMA Fab [7]): 2.35; phage binding ELISA signal in presence of PSMA (PSMA Fab [8]): 0.0796
33 | FNVMCRPAWMCDFL (cysteine pairing not given here; also: fused to pIII of display bacteriophage, linker and sequence not given here, Clonal phage of the Peptide-180 library; not shown: pIII filament protein of the display bacteriophage) [Phage-2863] | – | – | – | – | Phage binding ELISA signal, Anti-PSMA Fab (PSMA Fab [5]): 2.42; Phage binding ELISA signal (Anti-PSMA Fab, with competitor) (PSMA Fab [6]): 0.158
34 | DGIKCVPRWMCDGF (tested as crude clonal phage supernatant) [Phage-2886] | 0.146 | 2.36 | – | – | –
35 | ETPFCIPQWMCDGF [Phage-2892] | – | – | – | – | phage binding ELISA signal (PSMA Fab [7]): 2.35; phage binding ELISA signal in presence of PSMA (PSMA Fab [8]): 0.123
36 | EWILCKPAWMCDGL (cysteine pairing not given here; also: fused to pIII of display bacteriophage, linker and sequence not given here, Clonal phage of the Peptide-180 library; not shown: pIII filament protein of the display bacteriophage) [Phage-2860] | – | – | – | – | Phage binding ELISA signal, Anti-PSMA Fab (PSMA Fab [5]): 2.43; Phage binding ELISA signal (Anti-PSMA Fab, with competitor) (PSMA Fab [6]): 0.0639
37 | VQRMCEPSWMCFGF (cysteine pairing not given here; also: fused to pIII of display bacteriophage, linker and sequence not given here, Clonal phage of the Peptide-180 library; not shown: pIII filament protein of the display bacteriophage) [Phage-2856] | – | – | – | – | Phage binding ELISA signal, Anti-PSMA Fab (PSMA Fab [5]): 2.44; Phage binding ELISA signal (Anti-PSMA Fab, with competitor) (PSMA Fab [6]): 0.0783
38 | VLPMCSPPWMCIGL [Phage-2867] | – | – | 0.0912 | 2.4 | –
39 | GDPVCKPTWMCLGF (tested as crude clonal phage supernatant) [Phage-2881] | 0.09 | 2.38 | – | – | –
